From article PMC4424342

What follows are substances tested against GST-Shp2 SH2 T73D/S189D (assay: pull-down; glutathione-Sepharose bead-bound bacterial GST-Shp2 SH2 proteins incubated with lysates of HEK293T cells transfected with the ligand and constitutively active Src; 1 h at 4 °C; bound proteins immunoblotted for phosphotyrosine (4G10) and GST; band intensities quantified with ImageJ).

Substance	fold reduction of binding against the wild-type SH2 domains [fold]
GFP-PKD1, tyrosine-phosphorylated (from UniProt Q15139 1-912) (enzyme)	1.7
Venus-GAB1, tyrosine-phosphorylated (from UniProt Q13480 1-694) (natural protein)	5.7
Venus-GAB2, tyrosine-phosphorylated (from UniProt Q9UQC2 1-676) (natural protein)	2.7
